{"source": "patent US20250177432A1", "about": "“RNA MOLECULES AND COMPOSITIONS FOR CANCER IMMUNOTHERAPY” (WUHAN HOUXIAN BIOPHARMACEUTICAL CO. LTD., priority 2023, published 2025)", "molecules": {"B1": {"name": "#8: codon-optimized OX40L mRNA, SEQ ID NO:29 (nucleic acid)", "chain": "AUGGAGAGGGUGCAGCCCCUGGAGGAGAACGUUGGCAACGCCGCGAGGCCCAGGUUCGAGCGCAACAAGCUCCUCCUGGUUGCCAGCGUGAUCCAGGGGCUGGGGCUGCUGUUGUGCUUUACAUACAUUUGUUUGCACUUCAGCGCCCUGCAGGUGUCACACAGGUACCCUCGUAUCCAGAGUAUUAAGGUGCAGUUCACCGAGUACAAGAAGGAGAAGGGCUUCAUCUUGACCUCCCAGAAGGAGGACGAGAUAAUGAAGGUCCAGAACAACUCCGUAAUCAUCAACUGUGACGGAUUUUACCUUAUCAGCUUGAAGGGGUACUUCUCCCAGGAGGUGAACAUCAGCCUCCACUACCAGAAGGACGAGGAGCCCCUUUUCCAGCUGAAGAAGGUGAGAUCCGUCAACAGUCUGAUGGUUGCGAGUCUGACCUACAAGGAUAAGGUGUACCUGAAUGUGACCACCGACAACACCUCUCUCGAUGACUUUCACGUGAACGGGGGCGAGCUGAUUCUGAUCCAUCAGAAUCCCGGCGAGUUCUGCGUUCUGUGA"}, "B2": {"name": "FADD: mRNA encoding FADD (FAS-associated death domain protein) (nucleic acid)", "chain": "AUGGACCCGUUCCUGGUGCUGCUGCACUCGGUGUCGUCCAGCCUGUCGAGCAGCGAGCUGACCGAGCUCAAGUUCCUAUGCCUCGGGCGCGUGGGCAAGCGCAAGCUGGAGCGCGUGCAGAGCGGCCUAGACCUCUUCUCCAUGCUGCUGGAGCAGAACGACCUGGAGCCCGGGCACACCGAGCUCCUGCGCGAGCUGCUCGCCUCCCUGCGGCGCCACGACCUGCUGCGGCGCGUCGACGACUUCGAGGCGGGGGCGGCGGCCGGGGCCGCGCCUGGGGAAGAAGACCUGUGUGCAGCAUUUAACGUCAUAUGUGAUAAUGUGGGGAAAGAUUGGAGAAGGCUGGCUCGUCAGCUCAAAGUCUCAGACACCAAGAUCGACAGCAUCGAGGACAGAUACCCCCGCAACCUGACAGAGCGUGUGCGGGAGUCACUGAGAAUCUGGAAGAACACAGAGAAGGAGAACGCAACAGUGGCCCACCUGGUGGGGGCUCUCAGGUCCUGCCAGAUGAACCUGGUGGCUGACCUGGUACAAGAGGUUCAGCAGGCCCGUGACCUCCAGAACAGGAGUGGGGCCAUGUCCCCGAUGUCAUGGAACUCAGACGCAUCUACCUCCGAAGCGUCCUGA"}, "B3": {"name": "#10: codon-optimized OX40L mRNA, SEQ ID NO:31 (nucleic acid)", "chain": "AUGGAGCGGGUCCAGCCCCUGGAGGAGAACGUUGGCAACGCAGCGCGGCCCAGGUUCGAGAGGAACAAGCUGCUGCUGGUUGCCAGCGUGAUCCAGGGGCUGGGCCUGCUCCUGUGCUUCACCUACAUCUGCCUGCACUUCAGCGCACUGCAGGUGAGCCACAGGUAUCCCAGGAUACAGAGCAUCAAGGUGCAGUUCACCGAGUACAAGAAGGAGAAGGGCUUCAUCCUCACUUCCCAGAAGGAGGAUGAGAUCAUGAAGGUGCAGAACAACAGCGUGAUCAUCAACUGUGACGGCUUCUACCUGAUCAGCCUGAAGGGGUACUUCAGCCAGGAGGUGAACAUCAGCCUCCACUACCAGAAGGAUGAGGAGCCCCUGUUUCAGCUGAAGAAGGUGAGGUCCGUCAACAGUCUGAUGGUCGCGUCCUUGACCUACAAGGACAAGGUGUACCUGAACGUGACCACCGACAACACCAGCCUGGACGACUUCCAUGUGAACGGCGGUGAGCUGAUCUUGAUUCACCAGAACCCUGGUGAGUUCUGUGUCCUGUGA"}, "B4": {"name": "MLKL: mRNA encoding MLKL (mixed lineage kinase domain like pseudokinase) or its four-helix bundle domain (nucleic acid)", "chain": "AUGGAAAAUUUGAAGCAUAUUAUCACCCUUGGCCAGGUCAUCCACAAACGGUGUGAAGAGAUGAAAUACUGCAAGAAACAGUGCCGGCGCCUGGGCCACCGCGUCCUCGGCCUGAUCAAGCCUCUGGAGAUGCUCCAGGACCAAGGAAAGAGGAGCGUGCCCUCUGAGAAGUUAACCACAGCCAUGAACCGCUUCAAGGCUGCCCUGGAGGAGGCUAAUGGGGAGAUAGAAAAGUUCAGCAAUAGAUCCAAUAUCUGCAGGUUUCUAACAGCAAGCCAGGACAAAAUACUCUUCAAGGACGUGAACAGGAAGCUGAGUGAUGUCUGGAAGGAGCUCUCGCUGUUACUUCAGGUUGAGCAACGCAUGCCUGUUUCACCCAUAAGCCAAGGAGCGUCCUGGGCACAGGAAGAUCAGCAGGAUGCAGACGAAGACAGGCGAGCUUUCCAGAUGCUAAGAAGAGAUAAUGAAAAAAUAGAAGCUUCACUGAGACGAUUAGAAAUCAACAUGAAAGAAAUCAAGGAAACUUUGAGGCAGUAUUUACCACCAAAAUGCAUGCAGGAGAUCCCGCAAGAGCAAAUCAAGGAGAUCAAGAAGGAGCAGCUUUCAGGAUCCCCGUGGAUUCUGCUAAGGGAAAAUGAAGUCAGCACACUUUAUAAAGGAGAAUACCACAGAGCUCCAGUGGCCAUAAAAGUAUUCAAAAAACUCCAGGCUGGCAGCAUUGCAAUAGUGAGGCAGACUUUCAAUAAGGAGAUCAAAACCAUGAAGAAAUUCGAAUCUCCCAACAUCCUGCGUAUAUUUGGGAUUUGCAUUGAUGAAACAGUGACUCCGCCUCAAUUCUCCAUUGUCAUGGAGUACUGUGAACUCGGGACCCUGAGGGAGCUGUUGGAUAGGGAAAAAGACCUCACACUUGGCAAGCGCAUGGUCCUAGUCCUGGGGGCAGCCCGAGGCCUAUACCGGCUACACCAUUCAGAAGCACCUGAACUCCACGGAAAAAUCAGAAGCUCAAACUUCCUGGUAACUCAAGGCUACCAAGUGAAGCUUGCAGGAUUUGAGUUGAGGAAAACACAGACUUCCAUGAGUUUGGGAACUACGAGAGAAAAGACAGACAGAGUCAAAUCUACAGCAUAUCUCUCACCUCAGGAACUGGAAGAUGUAUUUUAUCAAUAUGAUGUAAAGUCUGAAAUAUACAGCUUUGGAAUCGUCCUCUGGGAAAUCGCCACUGGAGAUAUCCCGUUUCAAGGCUGUAAUUCUGAGAAGAUCCGCAAGCUGGUGGCUGUGAAGCGGCAGCAGGAGCCACUGGGUGAAGACUGCCCUUCAGAGCUGCGGGAGAUCAUUGAUGAGUGCCGGGCCCAUGAUCCCUCUGUGCGGCCCUCUGUGGAUGAAAUCUUAAAGAAACUCUCCACCUUUUCUAAGUAG"}}, "key": {"[1]": {"test": "Translation of codon optimized OX40L and IL-12 mRNA", "type": "cell-based", "details": "FIG. 17", "description": "Further, codon optimization was applied to the sequences of OX40L and IL-12 mRNA."}, "CT26 tumor cells": {"test_system": "CT26 tumor cells", "test": "CT26 tumor model, IL-12/OX40L plus additional agent mRNA (Example 4)", "type": "in vivo, mice", "details": "1.5 μg mRNA in total, days 9 and 12; for effect of adding the agent on the efficacy of the IL-12/OX40L combination: added agent fused to OX40L mRNA through IRES", "procedure": "All of these agents were delivered, in various combinations, to the same animal model as used above, as mRNA (1.5 μg in total), on days 9 and 12, post-tumor cell implantation. While IL-12 and OX40L were encoded on different constructs, the added agent (e.g., FADD) was fused to the OX40L mRNA, through an IRES elements.\nAll the test agents were safe in the animals (FIG. 8)."}}, "note": "“Also recorded” adds a separate entry of the source."}
{"molecule": "B1", "values": [{"measurement": "translation level", "setting": "[1]", "result": "relatively lower translation level"}]}
{"molecule": "B2", "values": [{"measurement": "anti-tumor effect of the added agent alone", "setting": "CT26 tumor cells", "result": "did not have observable anti-tumor effects"}, {"measurement": "effect of adding the agent on the efficacy of the IL-12/OX40L combination", "setting": "CT26 tumor cells", "result": "further increased the efficacy of the IL-12/OX12L combination; also recorded: greater than by GSDMD and TNFR"}]}
{"molecule": "B3", "values": [{"measurement": "translation level", "setting": "[1]", "result": "relatively lower translation level"}]}
{"molecule": "B4", "values": [{"measurement": "anti-tumor effect of the added agent alone", "setting": "CT26 tumor cells", "result": "did not have observable anti-tumor effects"}, {"measurement": "effect of adding the agent on the efficacy of the IL-12/OX40L combination", "setting": "CT26 tumor cells", "result": "further increased the efficacy of the IL-12/OX12L combination; also recorded: greater than by GSDMD and TNFR"}]}
